Results as given in patent US20200270325A1 (Merck Sharp & Dohme, published 2020).
Numbered stars: 1 amine (or outer) side, 2 acyl side, 3 side chain; on linkers, the order of the positions; unused ones are H or OH. Square brackets hold non-standard residues; d marks the D form. Side chains are listed from the residue outwards. Ends that are not written are not given here. * marks the point of attachment. C18 diacid = O=C(O)CCCCCCCCCCCCCCCCC(=O)*; γGlu = O=C(O)[C@H](CCC(=O)[*:2])N[*:1]; Met(O2) = CS(=O)(=O)CC[C@H](N)C(=O)O; αMeD = C[C@](N)(CC(=O)O)C(=O)O; Nle = CCCC[C@H](N)C(=O)O; AEEA = NCCOCCOCC(=O)O; Aib = CC(C)(N)C(=O)O

Assays:
[1] = biological target: human Glucagon receptor (GCGR) (human, UniProt P47871 26-477); test: cell-based or functional assay
[2] = biological target: human GLP-1 receptor (GLP1R) (human, UniProt P43220 24-463); test: cell-based or functional assay

human Glucagon receptor (GCGR), sequence (P47871 26-477): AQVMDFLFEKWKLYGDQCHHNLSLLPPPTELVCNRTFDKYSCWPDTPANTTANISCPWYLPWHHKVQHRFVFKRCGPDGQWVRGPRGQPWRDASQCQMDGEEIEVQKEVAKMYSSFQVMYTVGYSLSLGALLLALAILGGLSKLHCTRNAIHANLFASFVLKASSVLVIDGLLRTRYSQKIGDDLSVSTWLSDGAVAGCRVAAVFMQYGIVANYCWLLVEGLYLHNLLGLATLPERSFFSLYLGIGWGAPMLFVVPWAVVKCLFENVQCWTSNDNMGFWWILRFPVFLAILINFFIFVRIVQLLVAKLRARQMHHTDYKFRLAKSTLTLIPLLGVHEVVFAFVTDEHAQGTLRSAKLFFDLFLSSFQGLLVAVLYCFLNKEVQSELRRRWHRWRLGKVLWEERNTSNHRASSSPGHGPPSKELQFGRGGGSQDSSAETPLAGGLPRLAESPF

| Binder | GCGR EC50 human [1] [nM] | GLP1R EC50 human [2] [nM] |
| --- | --- | --- |
| H[Aib]QGTFTSDYSKYLDARAAK([AEEA-AEEA-γGlu-C18 diacid])DFVEWL[Met(O2)]KT-NH2 (N-terminus assumed; SMILES CC(C)C[C@H](NC(=O)[C@H](Cc1ccc(O)cc1)NC(=O)[C@H](CCCCN)NC(=O)[C@H](CO)NC(=O)[C@H](Cc1ccc(O)cc1)NC(=O)[C@H](CC(=O)O)NC(=O)[C@H](CO)NC(=O)[C@@H](NC(=O)[C@H](Cc1ccccc1)NC(=O)[C@@H](NC(=O)CNC(=O)[C@H](CCC(N)=O)NC(=O)C(C)(C)NC(=O)[C@@H](N)Cc1c[nH]cn1)[C@@H](C)O)[C@@H](C)O)C(=O)N[C@@H](CC(=O)O)C(=O)N[C@@H](C)C(=O)N[C@@H](CCCNC(=N)N)C(=O)N[C@@H](C)C(=O)N[C@@H](C)C(=O)N[C@@H](CCCCNC(=O)COCCOCCNC(=O)COCCOCCNC(=O)CC[C@H](NC(=O)CCCCCCCCCCCCCCCCC(=O)O)C(=O)O)C(=O)N[C@@H](CC(=O)O)C(=O)N[C@@H](Cc1ccccc1)C(=O)N[C@H](C(=O)N[C@@H](CCC(=O)O)C(=O)N[C@@H](Cc1c[nH]c2ccccc12)C(=O)N[C@@H](CC(C)C)C(=O)N[C@@H](CCS(C)(=O)=O)C(=O)N[C@@H](CCCCN)C(=O)N[C@H](C(N)=O)[C@@H](C)O)C(C)C) [TP705] | 1.48 | 0.41 |
| H[Aib]QGTFTSEYSKKLDARAAK([AEEA-AEEA-γGlu-C18 diacid])DFVQWL[Met(O2)]DT-NH2 (N-terminus assumed; SMILES CC(C)C[C@H](NC(=O)[C@H](CCCCN)NC(=O)[C@H](CCCCN)NC(=O)[C@H](CO)NC(=O)[C@H](Cc1ccc(O)cc1)NC(=O)[C@H](CCC(=O)O)NC(=O)[C@H](CO)NC(=O)[C@@H](NC(=O)[C@H](Cc1ccccc1)NC(=O)[C@@H](NC(=O)CNC(=O)[C@H](CCC(N)=O)NC(=O)C(C)(C)NC(=O)[C@@H](N)Cc1c[nH]cn1)[C@@H](C)O)[C@@H](C)O)C(=O)N[C@@H](CC(=O)O)C(=O)N[C@@H](C)C(=O)N[C@@H](CCCNC(=N)N)C(=O)N[C@@H](C)C(=O)N[C@@H](C)C(=O)N[C@@H](CCCCNC(=O)COCCOCCNC(=O)COCCOCCNC(=O)CC[C@H](NC(=O)CCCCCCCCCCCCCCCCC(=O)O)C(=O)O)C(=O)N[C@@H](CC(=O)O)C(=O)N[C@@H](Cc1ccccc1)C(=O)N[C@H](C(=O)N[C@@H](CCC(N)=O)C(=O)N[C@@H](Cc1c[nH]c2ccccc12)C(=O)N[C@@H](CC(C)C)C(=O)N[C@@H](CCS(C)(=O)=O)C(=O)N[C@@H](CC(=O)O)C(=O)N[C@H](C(N)=O)[C@@H](C)O)C(C)C) [TP703] | > 19.8 | > 19.8 |
| H[Aib]QGTFTSDYSKYLDARAAK([AEEA-AEEA-γGlu-C18 diacid])EFVQWL[Met(O2)]DT-NH2 (N-terminus assumed; SMILES CC(C)C[C@H](NC(=O)[C@H](Cc1ccc(O)cc1)NC(=O)[C@H](CCCCN)NC(=O)[C@H](CO)NC(=O)[C@H](Cc1ccc(O)cc1)NC(=O)[C@H](CC(=O)O)NC(=O)[C@H](CO)NC(=O)[C@@H](NC(=O)[C@H](Cc1ccccc1)NC(=O)[C@@H](NC(=O)CNC(=O)[C@H](CCC(N)=O)NC(=O)C(C)(C)NC(=O)[C@@H](N)Cc1c[nH]cn1)[C@@H](C)O)[C@@H](C)O)C(=O)N[C@@H](CC(=O)O)C(=O)N[C@@H](C)C(=O)N[C@@H](CCCNC(=N)N)C(=O)N[C@@H](C)C(=O)N[C@@H](C)C(=O)N[C@@H](CCCCNC(=O)COCCOCCNC(=O)COCCOCCNC(=O)CC[C@H](NC(=O)CCCCCCCCCCCCCCCCC(=O)O)C(=O)O)C(=O)N[C@@H](CCC(=O)O)C(=O)N[C@@H](Cc1ccccc1)C(=O)N[C@H](C(=O)N[C@@H](CCC(N)=O)C(=O)N[C@@H](Cc1c[nH]c2ccccc12)C(=O)N[C@@H](CC(C)C)C(=O)N[C@@H](CCS(C)(=O)=O)C(=O)N[C@@H](CC(=O)O)C(=O)N[C@H](C(N)=O)[C@@H](C)O)C(C)C) [TP704] | 0.27 | 0.37 |
| H[Aib]QGTFTSDYSKYLDARAAQEFVK([AEEA-AEEA-γGlu-C18 diacid])WL[Met(O2)]DT-NH2 (N-terminus assumed; SMILES CC(C)C[C@H](NC(=O)[C@H](Cc1ccc(O)cc1)NC(=O)[C@H](CCCCN)NC(=O)[C@H](CO)NC(=O)[C@H](Cc1ccc(O)cc1)NC(=O)[C@H](CC(=O)O)NC(=O)[C@H](CO)NC(=O)[C@@H](NC(=O)[C@H](Cc1ccccc1)NC(=O)[C@@H](NC(=O)CNC(=O)[C@H](CCC(N)=O)NC(=O)C(C)(C)NC(=O)[C@@H](N)Cc1c[nH]cn1)[C@@H](C)O)[C@@H](C)O)C(=O)N[C@@H](CC(=O)O)C(=O)N[C@@H](C)C(=O)N[C@@H](CCCNC(=N)N)C(=O)N[C@@H](C)C(=O)N[C@@H](C)C(=O)N[C@@H](CCC(N)=O)C(=O)N[C@@H](CCC(=O)O)C(=O)N[C@@H](Cc1ccccc1)C(=O)N[C@H](C(=O)N[C@@H](CCCCNC(=O)COCCOCCNC(=O)COCCOCCNC(=O)CC[C@H](NC(=O)CCCCCCCCCCCCCCCCC(=O)O)C(=O)O)C(=O)N[C@@H](Cc1c[nH]c2ccccc12)C(=O)N[C@@H](CC(C)C)C(=O)N[C@@H](CCS(C)(=O)=O)C(=O)N[C@@H](CC(=O)O)C(=O)N[C@H](C(N)=O)[C@@H](C)O)C(C)C) [TP702] | 0.35 | 0.27 |
| H[Aib]QGTFTSDYSKYLDARAA[Nle]([1,2,3‑triazole‑5-AEEA-AEEA-γGlu-C18 diacid])DFVQWL[Met(O2)]DT-NH2 [TP712] | 0.25 | 0.45 |
| H[Aib]QGTFTSDYSKYLDARAAK([AEEA-AEEA-γGlu-C18 diacid])DFVQWL[Met(O2)][αMeD]T-OH (N-terminus assumed; SMILES CC(C)C[C@H](NC(=O)[C@H](Cc1ccc(O)cc1)NC(=O)[C@H](CCCCN)NC(=O)[C@H](CO)NC(=O)[C@H](Cc1ccc(O)cc1)NC(=O)[C@H](CC(=O)O)NC(=O)[C@H](CO)NC(=O)[C@@H](NC(=O)[C@H](Cc1ccccc1)NC(=O)[C@@H](NC(=O)CNC(=O)[C@H](CCC(N)=O)NC(=O)C(C)(C)NC(=O)[C@@H](N)Cc1c[nH]cn1)[C@@H](C)O)[C@@H](C)O)C(=O)N[C@@H](CC(=O)O)C(=O)N[C@@H](C)C(=O)N[C@@H](CCCNC(=N)N)C(=O)N[C@@H](C)C(=O)N[C@@H](C)C(=O)N[C@@H](CCCCNC(=O)COCCOCCNC(=O)COCCOCCNC(=O)CC[C@H](NC(=O)CCCCCCCCCCCCCCCCC(=O)O)C(=O)O)C(=O)N[C@@H](CC(=O)O)C(=O)N[C@@H](Cc1ccccc1)C(=O)N[C@H](C(=O)N[C@@H](CCC(N)=O)C(=O)N[C@@H](Cc1c[nH]c2ccccc12)C(=O)N[C@@H](CC(C)C)C(=O)N[C@@H](CCS(C)(=O)=O)C(=O)N[C@@](C)(CC(=O)O)C(=O)N[C@H](C(=O)O)[C@@H](C)O)C(C)C) [TP735] | 0.895 | 0.648 |
| H[Aib]QGTFTSDYSKYLDARAAK([AEEA-AEEA-γGlu-C18 diacid])EFVQWL[Met(O2)][αMeD] (not fully specified (C-terminus); printed as HUQGTFTSDYSKYLDARAAK(PEG2PEG2γEC18-OH)EFVQWL2αMDT-NH2) [TP713] | 1.52 | 0.71 |
